The record followed here is article PMC4370742, “Expression, purification, and characterization of galactose oxidase of Fusarium sambucinum in E. coli” (Protein Expression and Purification, 2015).

Substrate in series [1]: CO[C@@H]1O[C@H](CO)[C@H](O)[C@H](O)[C@H]1O
As to the kind of experiment: purified protein. As to conditions: O2 at air saturation, 20 mM potassium phosphate pH 7.0, 30 °C, Cu-activated enzyme. Format: biochemical, Fusarium sambucinum.

Substrate in series [2]: OC[C@H]1O[C@H](OC[C@H]2O[C@H](O[C@]3(CO)O[C@H](CO)[C@@H](O)[C@@H]3O)[C@H](O)[C@@H](O)[C@@H]2O)[C@H](O)[C@@H](O)[C@H]1O
The series can be described thus: purified protein. Format: biochemical, Fusarium sambucinum. To be noted: O2 at air saturation, 20 mM potassium phosphate pH 7.0, 30 °C, Cu-activated enzyme.

B1: galactose oxidase (GalOx) of Fusarium sambucinum (Fusarium sambucinum) (protein)
chain: ASAPIGSAISRNNWAVTCDSAQPGNECNKAIDGNRDTFWHTFYGANGDPKPPHTYNIDMKTTQNVNGLSMLPRQDGSQNGWIGRHEVYLSSDGKTWGSPVATGSWFADSTTKYSNFETRPARYVRLVALAEANGQPWTSIAEINVYQASSYTAPQPGLGRWGPTIDLPIVPAAAAIEPTSGRVLMWSSYRNDAFGGSPGGVTLTSSWDPSSGIVSDRTVTVTKHDMFCPGISMDGNGQIVVTGGNDAKKTSLYDSPSDSWVPGPDMQVARGYQSSATMSDGRVFTIGGSWSGGIFEKNGEVYSPSSKTWTSLPNAKVNPMLTADKQGLYRSDNHAWLFGWKKGSVFQAGPSTAMNWYYTSGSGDVKSAGKRQSNRGVAPDAMCGNAVMYDAVQGKILTFGGSPDYQDSDATTNAHIITLGEPGSTPKTVFASNGLYFARTFHTSVVLPDGSTFITGGQRRGIPFEDSTPVLTPEIYVPEQDTFYKQNPNSIVRVYHSISLLLPDGRVFNGGGGLCGDCTTNHFDAQIFTPNYLYDSNGNLATRPKITRTSTQSVKVGGRVTISTDYSIRKASLIRYGTATHTVNTDQRRIPLTLMNNGGNSYSFQVPSDTGIALPGYWMLFVINSAGVPSVASTIRVTQ
notes: C-terminal His6 tag kept (pET21a NdeI/NotI); E. coli BL21(DE3); IMAC
In the case of B1, in the series “purified protein [1]”, the Km is listed as 39 ± 1.7 mM, the Vmax came out at 67 µmol/min/mg, the catalytic constant (kcat) worked out at 77 s⁻¹ and the kcat/Km was determined as 2000 M⁻¹ s⁻¹. In addition, in the series “purified protein [2]”, the Km was 20 ± 2.3 mM, the Vmax turned out to be 43 µmol/min/mg, the turnover number (kcat) was found to be 49 s⁻¹ and the kcat/Km was 2500 M⁻¹ s⁻¹.

A word on the Km: it is the concentration of substrate that gives half-maximal velocity. The term Vmax denotes the rate approached at saturating substrate. The kcat is the number of substrate molecules converted per active site and unit of time at saturation. Usually kcat/Km stands for the second-order rate constant that governs catalysis at low substrate concentration.
